Experimental data from patent publication US20190360025A1.

Experiments:
[1] = target: tumor necrosis factor alpha (TNF-α), R&D Systems 210-TA-005 (UniProt P01375); experiment: t-PLA 10X probes, human plasma; TNF-α 1.00E-11 M
[2] = target: tumor necrosis factor alpha (TNF-α), R&D Systems 210-TA-005 (UniProt P01375); experiment: t-PLA 10X probes, buffer; TNF-α 1.00E-09 M
[3] = target: tumor necrosis factor alpha (TNF-α), R&D Systems 210-TA-005 (UniProt P01375); experiment: c-PLA, buffer; TNF-α 1.00E-11 M
[4] = target: vascular endothelial growth factor (VEGF), R&D Systems 293-VE-010 (human) (UniProt P15692); experiment: t-PLA, human plasma; VEGF 1.00E-11 M
[5] = target: vascular endothelial growth factor (VEGF), R&D Systems 293-VE-010 (human) (UniProt P15692); experiment: t-PLA, chicken plasma; VEGF 1.00E-13 M
[6] = target: vascular endothelial growth factor (VEGF), R&D Systems 293-VE-010 (human) (UniProt P15692); experiment: c-PLA, buffer; VEGF 1.00E-12 M
[7] = target: vascular endothelial growth factor (VEGF), R&D Systems 293-VE-010 (human) (UniProt P15692); experiment: t-PLA with preamplification; VEGF 1.00E-09 M
[8] = target: vascular endothelial growth factor (VEGF), R&D Systems 293-VE-010 (human) (UniProt P15692); experiment: t-PLA with preamplification; VEGF 1.00E-10 M
[9] = target: vascular endothelial growth factor (VEGF), R&D Systems 293-VE-010 (human) (UniProt P15692); experiment: t-PLA, chicken plasma; VEGF 1.00E-08 M
[10] = target: vascular endothelial growth factor (VEGF), R&D Systems 293-VE-010 (human) (UniProt P15692); experiment: c-PLA, human plasma; VEGF 1.00E-09 M

Chain of UniProt P15692 (P15692 other isoform, or with tags, fused parts or gaps limits assumed): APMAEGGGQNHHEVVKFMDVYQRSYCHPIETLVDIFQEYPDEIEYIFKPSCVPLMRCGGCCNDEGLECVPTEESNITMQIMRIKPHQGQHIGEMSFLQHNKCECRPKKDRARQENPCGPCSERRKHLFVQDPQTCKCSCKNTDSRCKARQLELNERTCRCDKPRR
Chain of UniProt P01375 (P01375 77-233 limits assumed): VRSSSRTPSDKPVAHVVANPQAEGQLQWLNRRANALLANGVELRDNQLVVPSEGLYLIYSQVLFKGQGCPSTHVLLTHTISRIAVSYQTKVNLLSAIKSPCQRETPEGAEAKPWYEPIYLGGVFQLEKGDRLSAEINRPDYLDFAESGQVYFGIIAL

Substance | Counts [1] | Counts [2] | SBR [2] | Counts [3] | Counts [4] | Counts [5] | Counts [6] | SBR [6] | Counts [7] | SBR [7] | Counts [8] | SBR [8] | Counts [9] | SBR [9] | Counts [10] | SBR [10]
affinity-purified polyclonal anti-TNF-α antibody (R&D Systems AF-210-NA) | 4.13e+06 | 3.2e+08 | 56 | 22.1 |  |  |  |  |  |  |  |  |  |  |  | 
affinity-purified polyclonal anti-VEGF antibody (R&D Systems AF-293-NA) |  |  |  |  | 7.15e+06 | 133000 | 619 | 21 | 1.19e+09 | 6740 | 1.78e+08 | 1010 | 1.49e+08 | 2230 | 40500 | 156
